Source: patent publication US20160002318A1

How the values were obtained:
Test in all cases: cell-based or functional assay
[1] = target: HA of influenza B virus B/Brisbane/60/2008 (live virus) (influenza B virus B/Brisbane/60/2008)
[2] = target: HA of influenza B virus B/Florida/04/2006 (live virus) (influenza B virus B/Florida/04/2006)
[3] = target: HA of influenza B virus B/Harbin/7/1994 (live virus) (influenza B virus B/Harbin/7/1994)
[4] = target: HA of influenza B virus B/Malaysia/2506/2004 (live virus) (influenza B virus B/Malaysia/2506/2004)

Binder | HI titers [1] | VNA titers [1] | HI titers [2] | VNA titers [2] | VNA titers [3] | VNA titers in µg/ml (*assay was done with 25 TCIDs) [4] | HI titers [3] | HI titers [4]
CR11035 (antibody, V domains shown) VH: QVQLVQSGAEVKKPGSSVKVSCKTSGYAFNGYGISWVRQAPGQGLEWVAWINTYKVNTHYAQNLRGRVTVSIDTSTTTAYMELRSLRSDDTAVYYCARDWGGPFGNAFDFWGQGTMVTVSS VL: DIQMTQSPSSLAASIGDSVTITCRASQSVGSYLNWYQQKPGKAPKLLIYGASNVQSGVPSRFSGSESGTESTLTINNLQPEDSATYYCQQSYSTPRTFGQGTKVEIK | 0.26 µg/mL | 0.93 µg/mL | > 10 µg/mL | < 0.06 µg/mL | 0.16 µg/mL | 0.53 µg/mL | – | –
CR11036 (antibody, V domains shown) VH: EVQLVQSGAEVKKPGASVTVSCKASGYAFTSYYLHWVRQAPGQGLEWMGIMNLHGGSTTYAQKFQGRVTMTRDTSTRTVYMELSGLRSEDSAVYYCARESPDSSGYPGYYGMDVWGQGTTVTVSS VL: EIVLTQSPGTLSLSPGERATLSCRASQSVSSDFFAWYQQKRGQTPTLLIYGTSTRATGIPDRFSGSGSGTDFTLSVARLEPEDFAVYYCQQYGSSTWTFGQGTKVEIK | > 10 µg/mL | < 0.14 µg/mL | > 10 µg/mL | < 0.06 µg/mL | 0.02 µg/mL | 0.22 µg/mL | – | –
CR11038 (antibody, V domains shown) VH: EVQLVESGAEVKKPGASVKVSCKASGYAFTSYYLHWVRQAPGQGLEWMGIMNPHGGSTTYAQKFQGRVTMTRDTSTSTVYMELSSLRSEDTAVYYCARESPDSSGYPGYYGMDVWGQGTTVTVSS VL: SYELTQPPSASGTPGQRVTMSCSGSRSNIGSNPVSWFQQLPGMVPKLLIYTNDQRPSGVPDRFSGSKSGPSASLAISGLQSEDEADYYCAAWDDSLKGWVFGGGTKLTVL | 0.31 µg/mL | 0.55 µg/mL | 1.25 µg/mL | < 0.06 µg/mL | 0.05 µg/mL | 2.1 µg/mL | – | –
CR8059 (antibody, V domains shown) VH: EVQLVQSGAEVKKPGASVRVSCRASGYIFTESGITWVRQAPGQGLEWMGWISGYSGDTKYAQKLQGRVTMTKDTSTTTAYMELRSLRYDDTAVYYCARDVQYSGSYLGAYYFDYWSPGTLVTVSS VL: SYVLTQPPSASGTPGQRVTISCSGSSSNIGTNYVYWYQQFPGTAPKLLIYRSYQRPSGVPDRFSGSKSGSSASLAISGLQSEDEADYYCATWDDSLNGWVFGGGTKLTVL | > 50 µg/mL | 4.55 µg/mL | > 50 µg/mL | 3.23 µg/mL | 2.39 µg/mL | 17.7 µg/mL | > 50 µg/mL | > 50 µg/mL
CR8071 (antibody, V domains shown) VH: QVQLVQSGAEVKKPGASVRVSCRASGYIFTESGITWVRQAPGQGLEWMGWISGYSGDTKYAQKLQGRVTMTKDTSTTTAYMELRSLRYDDTAVYYCARDVQYSGSYLGAYYFDYWSPGTLVTVSS VL: QSVLTQPPSASGTPGQRVTISCSGSSSNIGTNYVYWYQQFPGTAPKLLIYRSYQRPSGVPDRFSGSKSGSSASLAISGLQSEDEADYYCATWDDSLDGWVFGGGTKLTVLR | > 50 µg/mL | 3.72 µg/mL | > 50 µg/mL | 2.12 µg/mL | 2.34 µg/mL | 14.9 µg/mL | > 50 µg/mL | > 50 µg/mL
CR10023 (antibody, V domains shown) VH: EVQLVETGGGLVQPGRSLRLSCAASGFTFDDYAMHWVRQAPGKGLEWVSGINWVSTTMGYADSVKGRFTISRDNAKNSLYLQMNSLRAEDTALYYCAKDRLESAAIDILEGGTFDIRGQGTMVTVSS VL: QSALTQPPSASGSPGQSVTISCTGTSSDVGGYNYVSWYQQHPGKAPKLMIYDVSKRPSGVPDRFSGSKSGNTASLTISGLQAEDEAEYYCSSYASGSTYVFGTGTKVTVL | > 50 µg/mL | 7.07 µg/mL | 1.56 µg/mL | < 0.55 µg/mL | 0.26 µg/mL | 12.5 µg/mL | 1.1 µg/mL | > 50 µg/mL
CR8031 (antibody, V domains shown) VH: EVQLVESGGGLVQPGRSLRLSCAASGFTFDEYIMHWVRQAPGKGPEWVAGINWKGNFMGYADSVQGRFTISRDNAKNSLYLQMNSLRADDTALYYCAKDRLESSAMDILEGGTFDIWGQGTMVT VL: QSALTQPASVSGSPGQSITISCTGTSSDVGGYNYVSWYQQHPGKAPKLMIYDVSSRPSGVSNRFSGSKSGDTASLSISGLQAEDEADYYCSSYTSSSTHVFGTGTKVTVL | – | – | – | 0.88 µg/mL | 1.24 µg/mL | > 50 µg/mL | – | –
CR8033 (antibody, V domains shown) VH: EVQLVETGGGLVQPGRSLRLSCAASGFSFDEYTMHWVRQAPGKGLEWVAGINWKGNFMGYADSVQGRFTISRDNGKNSLYLQMNSLRAEDTALYYCAKDRLESSAMDILEGGTFDIWGQGTMVT VL: EIVLTQSPGTLSLSPGERATLSCRASQSVSSSYLAWYQQKPGQAPRLLIYGASTRATGIPARFSGSGSGTDFTLTISRLEPEDLAVYYCQQYGSSPWTFGQGTKVEIK | > 50 µg/mL | 5.95 µg/mL | 0.22 µg/mL | 0.02 µg/mL | 0.03 µg/mL | 0.88 µg/mL | 0.39 µg/mL | > 50 µg/mL
CR11039 (antibody, V domains shown) VH: EVQLVQSGAEVKKPGESVKISCKTSGYAFTGYGISWVRQAPGQGLEWMGWINTYKFNTNYAQNLQGRVTMTIDTSTSAAYMELRSLRYEDTAVYFCARDWAGPFGNAFDVWGQGTMVTVSS VL: IQMTQSPSSLSASIGDRVAITCQASQDISDYLNWYQQQPGKAPKLLLYGASNLETGVPSRFSGSGSGTDFTFTISSLQPEDIATYYCQQYGNLPPTFGGGTKLEIK | 0.44 µg/mL | < 0.14 µg/mL | 0.63 µg/mL | < 0.06 µg/mL | 0.02 µg/mL | 0.06 µg/mL | – | –
CR8034 (antibody, V domains shown) VH: EVQLVETGGGLVQPGRSLRLSCAASGFTFDEYIMHWVRQAPGKGPEWVAGINWKGNFMGYADSVQGRFTISRDNAKNSLYLQMNSLRADDTALYYCAKDRLESSAMDILEGGTFDIWGQGTMVTVSS VL: DIQMTQSPSSLSASVGDRVTITCRASQGIRNDLGWYQQKPGKAPKRLIYAASSLQSGVPSRFSGSGSGTDFTLTISSLQPEDFATYYCQQANTYPLTFGGGTKLEIK | – | – | – | 0.12 µg/mL | 0.29 µg/mL | 2.31 µg/mL | – | –
CR8035 (antibody, V domains shown) VH: EVQLVESGGGLVQPGRSLRLSCAASGFTFDEYIMHWVRQAPGKGPEWVAGINWKGNFMGYADSVQGRFTISRDNAKNSLYLQMNSLRADDTALYYCAKDRLESSAMDILEGGTFDIWGQGTMVTVSS VL: SSELTQDPAVSVALGQTVRITCQGDSLRSYYASWYQQKPGQAPVLVIYGKNNRPSGIPDRFSGSSSRNTASLTITGAQAEDEADYYCDSRDSSGTHYVFGGGTKVTVL | – | – | – | 0.66 µg/mL | 0.66 µg/mL | 4.46 µg/mL | – | –
CR8032 (antibody, V domains shown) VH: EVQLVESGGGLVQPGRSLRLSCAASGFSFDEYIMHWVRQAPGKGLEWVAGINWKGNFMGYADSVQGRFTISRDNGKNSLYLQMNSLRAEDTALYYCAKDRLESSAMDILEGGTFDIWGQGTMVTVSS VL: QSALTQPASVSGSPGQSITISCTGTRRDVGDYKYVSWYQQHPGKAPKLMIYDVSNRPSGVSNRFSGSKSGTTASLTISGLQAEDEADYYCSSYTTSNTRVFGGGTKLTVL | – | – | – | 0.69 µg/mL | 0.69 µg/mL | 3.88 µg/mL | – | –
